US6391584B1, “Expression-cloning method for identifying target proteins for eukaryotic tyrosine kinases and novel target proteins” (New York University Medical Center, priority 1991, dated 2002)

Assays:
[1] = tested on: GRB2 phosphorylation in HER14 cells; test: GRB2 phosphorylation in (32P) orthophosphate-labelled, EGF stimulated HER14 cells; assay type: cell-based; details: vanadate (200 μM) at 37° C. for 20 min prior to the addition of EGF
Method: Labeling cells with (^32P)-orthophosphate were carried out as previously described (Li et al., Mol. Biol. Cell 2:641-649, 1991). Briefly, confluent HER14 cells starved for 16 hrs in 1% FCS/DMEM were incubated for two hours in Pi-free media, and labeled for two hours in Pi-free media, dialyzed FBS, 1 mCi/ml orthophosphate (carrier free, 314.5-337.5 TBq/mmole, purchased form NEN, Wilmington, Del.) at 37° C. Where appropriate, cells were incubated with vanadate (200 μM) at 37° C. for the last 20 minutes of cell labeling. Cells were then stimulated for two minutes with EGF (250 ng/ml) or PDGF (50 ng/ml), rapidly washed 2 times with ice cold phosphate-buffered saline (PBS), and solubilized immediately in lysis buffer (10 mM Tris-Cl pH 7.6, 50 mM NaCl, […] sodium pyrophosphate, 50 mM sodium fluoride, 100 μM sodium orthovanadate, 5 μM ZnCl2, 1 mM PMSF and 0.5% Triton-X-100). […]
To determine if the failure to detect tyrosine phosphorylated GRB2 was due to the rapid dephosphorylation by a protein tyrosine phosphatase, a potent tyrosine phosphatase inhibitor, vanadate, was tested for its effects upon GRB2 phosphorylation. (^32p) orthophosphate-labelled cells were incubated with or without vanadate at 37° C. for 20 min prior to the addition of EGF, and GRB2 phosphorylation was assessed as described above.

[2] = biological target: tyrosine phosphorylated wild-type EGF receptor, full length (human) (UniProt P00533); test: immunoprecipitated autophosphorylated EGFR, anti-PLC-γ blot with 125I-protein A, bands counted
[3] = biological target: trpE/GAP SH2 fusion protein (GAP residues 171-448) (UniProt P00895); test: filter binding: 32P-labelled probe on fusion protein spotted on nitrocellulose
[4] = biological target: T1, tyrosine phosphorylated EGFR-C (intracellular domain of the EGF receptor, baculovirus expressed) (human, UniProt P00533 669-1210, tyrosine autophosphorylated with MnCl2 and ATP; positions not given); test: EGFR-C immunoprecipitated with antibody C, anti-trpE immunoblot
T1 construct: domain: intracellular domain; Produced in baculovirus-infected SF9 cells; also called EGFR cytoplasmic domain; phosphorylated kinase
Method: In FIG. 12A, EGFR-C (0.5 μg) was immunoprecipitated with antibody C and washed. […] The immunoprecipitates were separated on a 10% SDS-gel, transferred to nitrocellulose and immunoblotting was performed with anti-trpE. […] Phosphorylated or non-phosphorylated EGFR-C (0.5 μg) was then added and allowed to bind as above. After washing, samples were separated on a 10% gel, transferred to nitrocellulose and probed with antibody C. The two samples on the right represent 0.5 μg of phosphorylated and non-phosphorylated kinase loaded directly onto the gel (exposure time: 2 h).

EGFR-C = biological target: T2, EGFR-C (Homo sapiens, UniProt P00533); test: Binding of trpE/GAP SH2 fusion protein to baculovirus expressed EGFR-C (immunoprecipitation / immunoblot); details: phosphorylated vs non-phosphorylated EGFR-C, FIG. 12A
T2 construct: EGFR-C represents a deletion mutant containing the cytoplasmic domain of the EGF receptor produced by baculovirus-infected SF9 cells; made in house; host or cells: baculovirus-infected SF9 insect cells
Method: FIGS. 12A and 12B are representations of a gel pattern showing binding of EGFR-C to trpE proteins. In FIG. 12A, EGFR-C (0.5 μg) was immunoprecipitated with antibody C and washed. MnCl2 alone or MnCl2 and ATP were then added to facilitate autophosphorylation of TrpE or trpE/GAP SH2 (approximately 2 μg). The immunoprecipitates were separated on a 10% SDS-gel, transferred to nitrocellulose and immunoblotting was performed with anti-trpE. For comparison, about 0.1 μg of trpE or trpE/GAP SH2 lysate was loaded directly on to the gel (right panel of 12A). In FIG. 12B, trpE or trpE/GAP SH2 was immunoprecipitated with anti-trpE antibodies and washed. Phosphorylated or non-phosphorylated EGFR-C (0.5 μg) was then added and allowed to bind as above. After washing, samples were separated on a 10% gel, transferred to nitrocellulose and probed with antibody C. The two samples on the right represent 0.5 μg of phosphorylated and non-phosphorylated kinase loaded directly onto the gel (exposure time: 2 h). The preparation of trpE fusion proteins containing the GAP SH2 domain (GAP residues 171-448, 10 FIG. 9B) has been described by Moran, M. F. et al., Proc. Natl. Acad. Sci. USA 87: 8622-8626 (1990). Bacterial lysates containing trpE/GAP SH2 fusion proteins were prepared by resuspending 1 g of bacteria in 3 ml of 50 mM Tris pH 7.5, 0.5 mm EDTA, 0.1 mm PMSF. […]

## [O]=[V]([O-])([O-])[O-] [Vanadate, vanadate]
[1]
  effect on GRB2 phosphorylation: did not result in detectable GRB2 phosphorylation

## PLC-γ (phosphatidylinositol specific phospholipase C-γ), non-phosphorylated, from 3TP1 cell lysate (enzyme)
[2]
  percent remaining bound after three washes with HNTG: 50%

## tyrosine phosphorylated C-terminal CNBr fragment of the EGF receptor (EGFR 984/1186) (from UniProt P00533 1008-1210)
[3]
  amount of spotted fusion protein at which binding was still detected: < 5 ng

B1: trpE protein alone (other, UniProt P00895 1-323, looked up)
chain: MQTQKPTLELLTCEGAYRDNPTALFHQLCGDRPATLLLESADIDSKDDLKSLLLVDSALRITALGDTVTIQALSGNGEALLALLDNALPAGVESEQSPNCRVLRFPPVSPLLDEDARLCSLSVFDAFRLLQNLLNVPKEEREAMFFGGLFSYDLVAGFEDLPQLSAENNCPDFCFYLAETLMVIDHQKKSTRIQASLFAPNEEEKQRLTARLNELRQQLTEAAPPLPVVSVPHMRCECNQSDEEFGGVVRLLQKAIRAGEIFQVVPSRRFSLPCPSPLAAYYVLKKSNPSPYMFFMQDNDFTLFGASPESSLKYDATSRQIEI
notes: Control for the trpE/GAP SH2 fusion; also called bacterial protein alone
[4]
  binding result: no binding

B2: trpE/GAP SH2 fusion protein: bacterially expressed trpE fusion protein containing the GAP SH2 domain (GAP residues 171-448) (protein)
chain: MQTQKPTLELLTCEGAYRDNPTALFHQLCGDRPATLLLESADIDSKDDLKSLLLVDSALRITALGDTVTIQALSGNGEALLALLDNALPAGVESEQSPNCRVLRFPPVSPLLDEDARLCSLSVFDAFRLLQNLLNVPKEEREAMFFGGLFSYDLVAGFEDLPQLSAENNCPDFCFYLAETLMVIDHQKKSTRIQASLFAPNEEEKQRLTARLNELRQQLTEAAPPLPVVSVPHMRCECNQSDEEFGGVVRLLQKAIRAGEIFQVVPSRRFSLPCPSPLAAYYVLKKSNPSPYMFFMQDNDFTLFGASPESSLKYDATSRQIEIIPLTAPPTNQWYHGKLDRTIAEERLRQAGKSGSYLIRESDRRPGSFVLSFLSQMNVVNHFRIIAMCGDYYIGGRRFSSLSDLIGYYSHVSCLLKGEKLLYPVAPPEPVEDRRRVRAILPYTKVPDTDEISFLKGDMFIVHNELEDGWMWVTNLRTDEQGLIVEDLVEEVGREEDPHEGKIWFHGKISKQEAYNLLMTVGQVCSFLVRPSDNTPGDYSLYFRTNENIQRFKICPTPNNQFMMGGRYYNSIGDIIDHYRKEQIVEGYYLKEPVPMQDQEQ
EGFR-C
  binding to EGFR-C: bound only to the tyrosine phosphorylated EGFR-C

B3: trpe protein: bacterial trpE protein alone, used as control for the fusion protein (protein)
chain: MQTQKPTLELLTCEGAYRDNPTALFHQLCGDRPATLLLESADIDSKDDLKSLLLVDSALRITALGDTVTIQALSGNGEALLALLDNALPAGVESEQSPNCRVLRFPPVSPLLDEDARLCSLSVFDAFRLLQNLLNVPKEEREAMFFGGLFSYDLVAGFEDLPQLSAENNCPDFCFYLAETLMVIDHQKKSTRIQASLFAPNEEEKQRLTARLNELRQQLTEAAPPLPVVSVPHMRCECNQSDEEFGGVVRLLQKAIRAGEIFQVVPSRRFSLPCPSPLAAYYVLKKSNPSPYMFFMQDNDFTLFGASPESSLKYDATSRQIEI
EGFR-C
  binding to EGFR-C: did not bind
